Assay results published in publication PMC12159748.

Experiments:
[1] = tested on: MBP-P6.9 NA-FLAG (7A, hypo-phosphorylation mimic) (Autographa californica multiple nucleopolyhedrovirus (AcMNPV)); assay: fluorescence polarization; conditions: FP: 50 mM HEPES pH 7.5, 0.005% sarcosyl, 100 mM NaCl, 0.5 mM EDTA, 1 mM DTT, 20 nM DNA, 1 h at 4 C, EMSA: 50 mM Tris pH 7.4, 100 mM NaCl, 1 mM EDTA
[2] = tested on: MBP-P6.9 NE-FLAG (7E, hyper-phosphorylation mimic) (Autographa californica multiple nucleopolyhedrovirus (AcMNPV)); assay: fluorescence polarization; conditions: FP: 50 mM HEPES pH 7.5, 0.005% sarcosyl, 100 mM NaCl, 0.5 mM EDTA, 1 mM DTT, 20 nM DNA, 1 h at 4 C, EMSA: 50 mM Tris pH 7.4, 100 mM NaCl, 1 mM EDTA

Work on 39-bp DNA yielded a Kd [1] of 450 nM and a Kd [2] of 1750 nM.
